Assay results as given in article doi:10.1101/824060 (bioRxiv, 2019).

T1: Gid9 (S. cerevisiae, UniProt P40492 1-516)
T1 sequence: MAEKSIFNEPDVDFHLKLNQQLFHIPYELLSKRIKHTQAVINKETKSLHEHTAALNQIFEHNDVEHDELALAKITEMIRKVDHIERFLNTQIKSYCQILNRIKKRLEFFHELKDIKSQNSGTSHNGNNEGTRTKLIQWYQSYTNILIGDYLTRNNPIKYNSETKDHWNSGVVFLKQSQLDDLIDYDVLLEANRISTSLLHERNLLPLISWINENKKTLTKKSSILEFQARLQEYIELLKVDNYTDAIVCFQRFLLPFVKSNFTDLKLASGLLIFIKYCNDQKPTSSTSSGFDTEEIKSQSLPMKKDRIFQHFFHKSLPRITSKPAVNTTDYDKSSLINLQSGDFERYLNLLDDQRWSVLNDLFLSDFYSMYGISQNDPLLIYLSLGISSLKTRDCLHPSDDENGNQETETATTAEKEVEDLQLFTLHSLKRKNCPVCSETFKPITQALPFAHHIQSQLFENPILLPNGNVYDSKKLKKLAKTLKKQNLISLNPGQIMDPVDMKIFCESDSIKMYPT

T2: Gid1 (endogenous, in native GID^Ant) (S. cerevisiae (endogenous in strain …, UniProt P53076 1-958))
T2 sequence: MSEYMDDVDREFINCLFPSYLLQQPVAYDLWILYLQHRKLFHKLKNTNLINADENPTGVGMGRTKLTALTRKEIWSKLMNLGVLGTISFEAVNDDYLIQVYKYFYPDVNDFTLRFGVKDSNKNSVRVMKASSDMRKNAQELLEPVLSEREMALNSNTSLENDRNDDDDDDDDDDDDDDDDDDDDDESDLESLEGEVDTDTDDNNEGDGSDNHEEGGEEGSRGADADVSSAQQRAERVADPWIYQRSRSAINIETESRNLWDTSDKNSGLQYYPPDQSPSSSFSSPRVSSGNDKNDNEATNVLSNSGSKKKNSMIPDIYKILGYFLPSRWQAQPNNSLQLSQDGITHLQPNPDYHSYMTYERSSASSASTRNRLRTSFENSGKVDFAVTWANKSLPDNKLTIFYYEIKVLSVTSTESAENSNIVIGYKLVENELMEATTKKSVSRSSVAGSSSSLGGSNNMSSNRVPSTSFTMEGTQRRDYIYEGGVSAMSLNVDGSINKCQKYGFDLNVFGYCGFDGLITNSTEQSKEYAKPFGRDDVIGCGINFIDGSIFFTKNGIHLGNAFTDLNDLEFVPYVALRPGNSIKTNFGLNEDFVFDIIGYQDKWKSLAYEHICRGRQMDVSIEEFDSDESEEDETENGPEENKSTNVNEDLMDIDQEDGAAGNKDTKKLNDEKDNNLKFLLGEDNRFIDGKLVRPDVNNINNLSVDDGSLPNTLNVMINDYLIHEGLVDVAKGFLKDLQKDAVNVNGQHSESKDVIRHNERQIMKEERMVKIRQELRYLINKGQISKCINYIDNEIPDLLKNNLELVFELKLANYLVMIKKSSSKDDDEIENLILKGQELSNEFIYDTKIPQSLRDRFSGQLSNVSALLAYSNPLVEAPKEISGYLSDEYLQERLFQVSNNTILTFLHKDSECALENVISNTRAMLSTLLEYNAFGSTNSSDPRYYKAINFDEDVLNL

T3: Gid9 (endogenous, in native GID^Ant) (S. cerevisiae (endogenous in strain …, UniProt P40492 1-516))
T3 sequence: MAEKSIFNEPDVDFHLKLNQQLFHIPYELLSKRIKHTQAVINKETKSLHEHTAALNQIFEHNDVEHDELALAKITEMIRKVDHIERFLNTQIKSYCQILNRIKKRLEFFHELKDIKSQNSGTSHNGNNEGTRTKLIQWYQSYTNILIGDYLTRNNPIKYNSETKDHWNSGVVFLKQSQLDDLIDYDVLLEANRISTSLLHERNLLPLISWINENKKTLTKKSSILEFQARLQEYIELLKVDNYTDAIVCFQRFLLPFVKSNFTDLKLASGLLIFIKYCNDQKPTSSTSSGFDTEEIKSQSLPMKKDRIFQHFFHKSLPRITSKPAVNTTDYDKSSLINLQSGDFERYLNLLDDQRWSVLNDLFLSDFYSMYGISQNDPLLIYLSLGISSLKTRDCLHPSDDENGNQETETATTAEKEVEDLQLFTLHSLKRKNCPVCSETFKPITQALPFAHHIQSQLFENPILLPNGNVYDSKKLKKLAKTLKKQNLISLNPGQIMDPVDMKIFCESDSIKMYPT

T4: Gid1 (S. cerevisiae, UniProt P53076 1-958)
T4 sequence: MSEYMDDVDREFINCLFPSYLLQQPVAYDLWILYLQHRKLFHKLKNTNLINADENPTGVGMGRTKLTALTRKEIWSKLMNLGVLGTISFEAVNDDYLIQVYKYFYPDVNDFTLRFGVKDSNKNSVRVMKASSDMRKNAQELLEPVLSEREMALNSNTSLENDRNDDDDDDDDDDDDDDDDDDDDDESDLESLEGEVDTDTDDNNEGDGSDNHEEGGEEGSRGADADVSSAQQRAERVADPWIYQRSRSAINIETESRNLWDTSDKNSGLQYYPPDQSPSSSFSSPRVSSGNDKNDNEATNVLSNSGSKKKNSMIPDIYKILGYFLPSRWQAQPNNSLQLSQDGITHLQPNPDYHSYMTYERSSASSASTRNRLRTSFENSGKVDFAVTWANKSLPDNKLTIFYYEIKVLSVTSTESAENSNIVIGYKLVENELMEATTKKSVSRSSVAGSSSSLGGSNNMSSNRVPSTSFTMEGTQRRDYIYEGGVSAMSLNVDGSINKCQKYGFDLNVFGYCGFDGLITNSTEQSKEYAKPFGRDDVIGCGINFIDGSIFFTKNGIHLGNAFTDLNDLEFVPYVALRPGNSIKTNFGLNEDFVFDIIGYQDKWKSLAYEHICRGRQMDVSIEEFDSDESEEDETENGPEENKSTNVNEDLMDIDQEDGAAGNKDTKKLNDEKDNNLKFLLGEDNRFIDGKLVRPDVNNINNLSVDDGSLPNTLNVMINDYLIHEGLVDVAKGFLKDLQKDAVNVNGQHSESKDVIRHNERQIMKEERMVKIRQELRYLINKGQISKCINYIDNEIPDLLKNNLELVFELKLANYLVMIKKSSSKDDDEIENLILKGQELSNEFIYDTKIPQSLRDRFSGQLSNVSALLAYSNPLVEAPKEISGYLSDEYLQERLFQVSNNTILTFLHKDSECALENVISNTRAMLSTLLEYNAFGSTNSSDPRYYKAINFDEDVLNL


Assays:
Gid9 = biological target: T1, Gid9; assay: […]
[1] = biological target: T2, Gid1 (endogenous, in native GID^Ant); assay: cryo-EM structure
[2] = biological target: T3, Gid9 (endogenous, in native GID^Ant); assay: cryo-EM structure
Gid1 = biological target: T4, Gid1; assay: […]

Binder | binding result (Gid9) | binding result [1] | binding result [2] | binding result (Gid1)
Gid2 (natural protein) MSELLDSFETEFAKFYTDSNLEETNLQKCLDHTHEFKSQLKKLKAHLNKHIQESKPEVYNKLSDKEKQKFKRKRELIIEKLSKSQRQWDHSVKKQIKYVSQQSNRFNKSTLNKLKEFDIDSVYVNKLPKETMENVNEAIGYHILRYSIDNMPLGNKNEAFQYLKDVYGITNKESTEFIEMGQIVHDLKKGDTESCLKWCSNEMESLSSNHTALSSLKFDLYTLSAMQIVKHGNPVELYYQITQNAPLDCFRHREKELMQNVVPLLTKSLIGQPIEDIDSKVNKELKECTSLFIKEYCAAKHIFFDSPLFLIVLSGLISFQFFIKYKTIRELAHVDWTTKDELPFDVKLPDFLTHFHPIFICPVLKEETTTENPPYSLACHHIISKKALDRLSKNGTITFKCPYCPVNTSMSSTKKVRFVML | binds |  |  | 
Gid8 with 3X Flag tag at the C-terminus (endogenous, strain CRLY45) (natural protein) MTISTLSNETTKSGSCSGQGKNGGKDFTYGKKCFTKEEWKEQVAKYSAMGELYANKTIHYPLKIQPNSSGGSQDEGFATIQTTPIEPTLPRLLLNYFVSMAYEDSSIRMAKELGFIRNNKDIAVFNDLYKIKERFHIKHLIKLGRINEAMEEINSIFGLEVLEETFNATGSYTGRTDRQQQQQQQQFDIDGDLHFKLLLLNLIEMIRSHHQQENITKDSNDFILNLIQYSQNKLAIKASSSVKKMQELELAMTLLLFPLSDSADSGSIKLPKSLQNLYSISLRSKIADLVNEKLLKFIHPRIQFEISNNNSKFPDLLNSDKKIITQNFTVYNNNLVNGSNGTKITHISSDQPINEKMSSNEVTAAANSVWLNQRDGNVGTGSAATTFHNLENKNYWNQTSELLSSSNGKEKGLEFNNYYSSEFPYEPRLTQIMKLWCWCENQLHHNQIGVPRVEN |  | binds | binds | 
Gid8 (natural protein) MTISTLSNETTKSGSCSGQGKNGGKDFTYGKKCFTKEEWKEQVAKYSAMGELYANKTIHYPLKIQPNSSGGSQDEGFATIQTTPIEPTLPRLLLNYFVSMAYEDSSIRMAKELGFIRNNKDIAVFNDLYKIKERFHIKHLIKLGRINEAMEEINSIFGLEVLEETFNATGSYTGRTDRQQQQQQQQFDIDGDLHFKLLLLNLIEMIRSHHQQENITKDSNDFILNLIQYSQNKLAIKASSSVKKMQELELAMTLLLFPLSDSADSGSIKLPKSLQNLYSISLRSKIADLVNEKLLKFIHPRIQFEISNNNSKFPDLLNSDKKIITQNFTVYNNNLVNGSNGTKITHISSDQPINEKMSSNEVTAAANSVWLNQRDGNVGTGSAATTFHNLENKNYWNQTSELLSSSNGKEKGLEFNNYYSSEFPYEPRLTQIMKLWCWCENQLHHNQIGVPRVEN | binds |  |  | binds
